These results are taken from article PMC1474074.

Data set [1] has as its target T1, streptavidin (UniProt P22629 25-183). The data set can be described thus: EMSA. In general terms: A gel shift assay detects complexes by their altered migration in electrophoresis.
Data set [2] addresses T1, streptavidin. The experiment in a line: EMSA. This is another data set of the same source.

Read-outs that look alike come from different tables or passages of the source.

T1 sequence (P22629 25-183): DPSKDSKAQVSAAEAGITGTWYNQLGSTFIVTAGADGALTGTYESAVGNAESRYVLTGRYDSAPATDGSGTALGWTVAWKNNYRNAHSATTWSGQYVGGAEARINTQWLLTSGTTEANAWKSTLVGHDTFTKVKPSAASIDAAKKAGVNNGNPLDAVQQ

B1: B-siRNA (anti-lamin A/C) (dsRNA)
RNA 1: GGAACUGGACUUCCAGAAGAACAUCUA
RNA 2: UAGAUGUUCUUCUGGAAGUCCAGUUCC
modifications: 5'-biotin on sense strand
Turning to B1, the binding result in data set [1] is reported as “binds”.

B2: BSS-siRNA (anti-lamin A/C) (dsRNA)
RNA 1: GGAACUGGACUUCCAGAAGAACAUCUA
RNA 2: UAGAUGUUCUUCUGGAAGUCCAGUUCC
modifications: 5'-biotin via C6 S-S disulfide linker on sense strand
Regarding B2, in data set [2], the binding result is listed as “binds”.
